B1: target 2 MT 5'PFS CUU 3'PFS ACG (mixed)
RNA 1: CACCCGUGCAAAAUUGCAGGGGUCUAAAACCUUCUCCAAAUUGUUUCAUCCU
RNA 2: GGGAAUGGAUCCACAUCUACGAAUUCCUUAGGAUGAAACAAUUUGGAGAAGACGAGAUCGGAAGAGCACACGU
B2: target 2 MT 5'PFS GGA 3'PFS UAU (mixed)
RNA 1: B1 RNA 1
RNA 2: B1 RNA 2 with C27G, U28G, U29A, A52U, C53A, G54U
B3: target 2 MT 5'PFS CGA 3'PFS CUA (mixed)
RNA 1: B1 RNA 1
RNA 2: B1 RNA 2 with U28G, U29A, A52C, C53U, G54A
B4: target 2 MT 5'PFS GAG 3'PFS CGU (mixed)
RNA 1: B1 RNA 1
RNA 2: B1 RNA 2 with C27G, U28A, U29G, A52C, C53G, G54U
B5: target 2 MT 5'PFS UAU 3'PFS UGC (mixed)
RNA 1: B1 RNA 1
RNA 2: B1 RNA 2 with C27U, U28A, A52U, C53G, G54C
B6: target 2 MT 5'PFS CAG 3'PFS CAC (mixed)
RNA 1: B1 RNA 1
RNA 2: B1 RNA 2 with U28A, U29G, A52C, C53A, G54C
B7: target 2 MT 5'PFS CAG 3'PFS CAG (mixed)
RNA 1: B1 RNA 1
RNA 2: B1 RNA 2 with U28A, U29G, A52C, C53A
B8: target 2 MT 5'PFS GAG 3'PFS AGU (mixed)
RNA 1: B1 RNA 1
RNA 2: B1 RNA 2 with C27G, U28A, U29G, C53G, G54U
B9: target 2 MT 5'PFS GAG 3'PFS CGA (mixed)
RNA 1: B1 RNA 1
RNA 2: B1 RNA 2 with C27G, U28A, U29G, A52C, C53G, G54A
B10: target 2 MT 5'PFS UUC 3'PFS ACC (mixed)
RNA 1: B1 RNA 1
RNA 2: B1 RNA 2 with C27U, U29C, G54C
B11: target 2 MT 5'PFS GAG 3'PFS CGC (mixed)
RNA 1: B1 RNA 1
RNA 2: B1 RNA 2 with C27G, U28A, U29G, A52C, C53G, G54C
B12: target 2 MT 5'PFS GAG 3'PFS AGA (mixed)
RNA 1: B1 RNA 1
RNA 2: B1 RNA 2 with C27G, U28A, U29G, C53G, G54A
B13: target 2 MT 5'PFS ACC 3'PFS UCC (mixed)
RNA 1: B1 RNA 1
RNA 2: B1 RNA 2 with C27A, U28C, U29C, A52U, G54C
B14: target 2 MT 5'PFS GUA 3'PFS CAG (mixed)
RNA 1: B1 RNA 1
RNA 2: B1 RNA 2 with C27G, U29A, A52C, C53A
B15: target 2 MT 5'PFS GAG 3'PFS CGG (mixed)
RNA 1: B1 RNA 1
RNA 2: B1 RNA 2 with C27G, U28A, U29G, A52C, C53G
B16: target 2 MT 5'PFS GUA 3'PFS UGU (mixed)
RNA 1: B1 RNA 1
RNA 2: B1 RNA 2 with C27G, U29A, A52U, C53G, G54U
B17: target 2 MT 5'PFS CGA 3'PFS UUU (mixed)
RNA 1: B1 RNA 1
RNA 2: B1 RNA 2 with U28G, U29A, A52U, C53U, G54U
B18: target 2 MT 5'PFS CGC 3'PFS AGU (mixed)
RNA 1: B1 RNA 1
RNA 2: B1 RNA 2 with U28G, U29C, C53G, G54U
B19: target 2 MT 5'PFS GGA 3'PFS UAA (mixed)
RNA 1: B1 RNA 1
RNA 2: B1 RNA 2 with C27G, U28G, U29A, A52U, C53A, G54A
B20: target 2 MT 5'PFS UUG 3'PFS CGA (mixed)
RNA 1: B1 RNA 1
RNA 2: B1 RNA 2 with C27U, U29G, A52C, C53G, G54A
B21: target 2 MT 5'PFS GGA 3'PFS UAC (mixed)
RNA 1: B1 RNA 1
RNA 2: B1 RNA 2 with C27G, U28G, U29A, A52U, C53A, G54C
B22: target 2 MT 5'PFS CGA 3'PFS UUA (mixed)
RNA 1: B1 RNA 1
RNA 2: B1 RNA 2 with U28G, U29A, A52U, C53U, G54A
B23: target 2 MT 5'PFS UUC 3'PFS ACA (mixed)
RNA 1: B1 RNA 1
RNA 2: B1 RNA 2 with C27U, U29C, G54A
B24: target 2 MT 5'PFS CGA 3'PFS CUU (mixed)
RNA 1: B1 RNA 1
RNA 2: B1 RNA 2 with U28G, U29A, A52C, C53U, G54U
B25: target 2 MT 5'PFS UAG 3'PFS UCC (mixed)
RNA 1: B1 RNA 1
RNA 2: B1 RNA 2 with C27U, U28A, U29G, A52U, G54C
B26: target 2 MT 5'PFS GAG 3'PFS AGC (mixed)
RNA 1: B1 RNA 1
RNA 2: B1 RNA 2 with C27G, U28A, U29G, C53G, G54C
B27: target 2 MT 5'PFS CAG 3'PFS CAA (mixed)
RNA 1: B1 RNA 1
RNA 2: B1 RNA 2 with U28A, U29G, A52C, C53A, G54A
B28: target 2 MT 5'PFS CAU 3'PFS AGC (mixed)
RNA 1: B1 RNA 1
RNA 2: B1 RNA 2 with U28A, C53G, G54C
B29: target 2 MT 5'PFS UAU 3'PFS UGA (mixed)
RNA 1: B1 RNA 1
RNA 2: B1 RNA 2 with C27U, U28A, A52U, C53G, G54A
B30: target 2 MT 5'PFS CUU 3'PFS ACC (mixed)
RNA 1: B1 RNA 1
RNA 2: B1 RNA 2 with G54C
B31: target 2 MT 5'PFS UUG 3'PFS CGC (mixed)
RNA 1: B1 RNA 1
RNA 2: B1 RNA 2 with C27U, U29G, A52C, C53G, G54C
B32: target 2 MT 5'PFS CUU 3'PFS ACA (mixed)
RNA 1: B1 RNA 1
RNA 2: B1 RNA 2 with G54A
B33: target 2 MT 5'PFS GGA 3'PFS UAG (mixed)
RNA 1: B1 RNA 1
RNA 2: B1 RNA 2 with C27G, U28G, U29A, A52U, C53A
B34: target 1 G5A,A20C (mixed)
RNA 1: CACCCGUGCAAAAAUGCAGGGGUCUAAAACUGAGCGGAUAACCUCUCUAUGG
RNA 2: GGGAAUGGAUCCACAUCUACGAAUUCGUACCCUAGAGAGGUUAUCCACUCACCGAGAUCGGAAGAGCACACGU
B35: target 1 A14U,G15A (mixed)
RNA 1: B34 RNA 1
RNA 2: B34 RNA 2 with C32A, G37A, A38U, A47G
B36: target 1 insU 3' of 12,insU 3' of 12 (mixed)
RNA 1: B34 RNA 1
RNA 2: GGGAAUGGAUCCACAUCUACGAAUUCGUACCAUAGAGAGGUUUUAUCCGCUCACCGAGAUCGGAAGAGCACACGU

Changes are numbered by the printed parent chain. In names and notes the source's numbering stands.

A word on the Kd: it is the free concentration of one partner at which half of the binding sites on the other are occupied at equilibrium, for simple one-to-one binding. Read a high Kd as weaker binding.

The series has as its target T1, EsCas13d, nuclease-dead (Eubacterium siraeum, UniProt B0MS50, R295A;H300A;R849A;H854A).
T1 sequence: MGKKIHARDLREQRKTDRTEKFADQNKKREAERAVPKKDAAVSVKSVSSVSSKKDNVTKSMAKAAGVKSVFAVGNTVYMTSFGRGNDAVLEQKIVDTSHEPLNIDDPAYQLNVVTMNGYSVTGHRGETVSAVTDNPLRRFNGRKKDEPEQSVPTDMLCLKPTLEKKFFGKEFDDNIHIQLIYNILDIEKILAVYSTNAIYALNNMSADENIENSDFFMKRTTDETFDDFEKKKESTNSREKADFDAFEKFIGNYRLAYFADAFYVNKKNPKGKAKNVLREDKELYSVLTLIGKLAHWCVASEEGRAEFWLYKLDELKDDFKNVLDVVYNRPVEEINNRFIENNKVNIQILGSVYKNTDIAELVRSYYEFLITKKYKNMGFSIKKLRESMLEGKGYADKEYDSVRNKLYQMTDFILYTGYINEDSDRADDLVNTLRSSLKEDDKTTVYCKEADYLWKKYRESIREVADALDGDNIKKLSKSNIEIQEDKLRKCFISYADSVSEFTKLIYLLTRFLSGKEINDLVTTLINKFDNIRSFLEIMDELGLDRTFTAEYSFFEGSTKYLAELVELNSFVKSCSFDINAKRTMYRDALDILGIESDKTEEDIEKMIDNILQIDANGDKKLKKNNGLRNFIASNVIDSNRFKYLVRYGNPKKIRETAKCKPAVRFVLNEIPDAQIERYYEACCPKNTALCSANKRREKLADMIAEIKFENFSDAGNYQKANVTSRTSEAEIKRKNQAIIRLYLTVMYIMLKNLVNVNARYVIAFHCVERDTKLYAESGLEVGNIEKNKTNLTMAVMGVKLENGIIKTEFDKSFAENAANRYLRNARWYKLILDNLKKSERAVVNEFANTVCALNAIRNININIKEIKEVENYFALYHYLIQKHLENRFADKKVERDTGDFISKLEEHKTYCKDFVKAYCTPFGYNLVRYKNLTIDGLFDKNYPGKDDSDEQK
The series can be described thus: crRNA (strand 1, pre-loaded); Mg2+; 40 mM Tris-HCl pH 7.5, 150 mM NaCl, 6 mM MgCl2, 1 mM DTT, 0.1% Tween-20, 0.2 mg/ml BSA; 25 C; 10 min per concentration, then washed. Conditions: tags: His6-TwinStrep-SUMO cleaved; N-terminal SNAP kept (SNAP-Surface 488); label: 3' end held by stalled T7 RNA polymerase.
Molecule B1 came in with a Kd of 4.4 ± 0.5 nM.
With B2, binding was characterised by a dissociation constant (Kd) of 9.1 ± 1.1 nM.
The molecule B3 registered a Kd of 8.3 ± 1.3 nM.
Regarding B4, the Kd was found to be 9.4 ± 0.9 nM.
The molecule B5 came in with a Kd of 30 ± 6 nM.
Regarding B6, binding was put at a Kd of 5.6 ± 1.6 nM.
The molecule B7 registered a Kd of 7.2 ± 1.2 nM.
B8 gave a Kd of 9.1 ± 1.1 nM.
Molecule B9 returned a Kd of 4.9 ± 0.4 nM.
With B10, the Kd was about 16 nM.
Consider B11, for which the Kd came to 6.4 ± 0.4 nM.
Molecule B12 yielded a Kd of 4.9 ± 0.5 nM.
In the case of B13, binding was put at a Kd of 5.5 ± 0.6 nM.
As to B14, the affinity, expressed as Kd, was 9.6 ± 1.1 nM.
As for B15, the Kd stood at 5.8 ± 0.4 nM.
B16 displayed an equilibrium dissociation constant (Kd) of 15.2 ± 1.2 nM.
Molecule B17 had a Kd of 9.2 ± 1.7 nM.
Molecule B18 showed a Kd of 4.3 ± 0.6 nM.
The molecule B19 showed a Kd of 5.6 ± 0.9 nM.
As to B20, the Kd worked out at 11.4 ± 1 nM.
As to B21, the Kd came to 16.1 ± 2.7 nM.
Turning to B22, the Kd came out at 9 ± 1.7 nM.
For the molecule B23, the Kd is about 21 nM.
Consider B24, for which binding was characterised by a dissociation constant (Kd) of 8.3 ± 1.1 nM.
In turn, B25 came in with a Kd of 7.9 ± 0.8 nM.
Then B26, with 5.7 ± 0.7 nM.
To B27 belongs 6.6 ± 2.7 nM; to B28, 3 ± 0.4 nM.
In turn, B29 yielded a Kd of 37 ± 9 nM.
For the molecule B30, the Kd was determined as 10.5 ± 2.2 nM.
B31: the Kd is 15.9 ± 1.5 nM.
Consider B32, for which the affinity, expressed as Kd, was 4.9 ± 0.6 nM.
With B33, the Kd came out at 8.7 ± 0.7 nM.
In turn, B34 gave a Kd of 88 ± 13 nM.
B35 showed a Kd of 64 ± 10 nM.
The molecule B36 had a Kd of 10.1 ± 0.8 nM.

For the origin of these results see article PMC10786891, “Massively parallel profiling of RNA-targeting CRISPR-Cas13d”.
